Data: the supplement of paper PMC9876800

Each substance was assayed on peptide library, one residue held at a place counted from the S/T acceptor (assay: relative phosphorylation of the sub-library (ratio to the mean residue at this position); human; higher = residue favoured). Details: R fixed; at +1.
Summary of the method: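 Spots on streptavidin membranes were phosphorimaged and quantified by densitometry to measure phosphorylation of biotinylated degenerate peptide sub-libraries by purified recombinant kinases, human or orthologue constructs. The reactions ran in 384-well plates for 90 min under kinase-specific conditions, with peptides at 50 μM and 50 μM ATP spiked with γ-32P-ATP. Relative sub-library phosphorylation is the ratio to the mean residue at that position.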

Sequence of CSNK1A1L, construct: Full length (Q8N752 whole entry, looked up): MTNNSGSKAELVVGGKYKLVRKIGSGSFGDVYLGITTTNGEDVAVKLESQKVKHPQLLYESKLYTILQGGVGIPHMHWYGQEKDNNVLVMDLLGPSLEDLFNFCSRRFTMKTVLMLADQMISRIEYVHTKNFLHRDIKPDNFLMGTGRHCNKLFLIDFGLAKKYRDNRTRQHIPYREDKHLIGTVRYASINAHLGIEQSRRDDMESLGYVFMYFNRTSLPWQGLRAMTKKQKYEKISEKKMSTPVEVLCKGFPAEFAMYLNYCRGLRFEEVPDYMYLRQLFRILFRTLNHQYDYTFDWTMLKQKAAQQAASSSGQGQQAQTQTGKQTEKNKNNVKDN
Sequence of CAMK2D, construct: Full length (Q13557 whole entry, looked up): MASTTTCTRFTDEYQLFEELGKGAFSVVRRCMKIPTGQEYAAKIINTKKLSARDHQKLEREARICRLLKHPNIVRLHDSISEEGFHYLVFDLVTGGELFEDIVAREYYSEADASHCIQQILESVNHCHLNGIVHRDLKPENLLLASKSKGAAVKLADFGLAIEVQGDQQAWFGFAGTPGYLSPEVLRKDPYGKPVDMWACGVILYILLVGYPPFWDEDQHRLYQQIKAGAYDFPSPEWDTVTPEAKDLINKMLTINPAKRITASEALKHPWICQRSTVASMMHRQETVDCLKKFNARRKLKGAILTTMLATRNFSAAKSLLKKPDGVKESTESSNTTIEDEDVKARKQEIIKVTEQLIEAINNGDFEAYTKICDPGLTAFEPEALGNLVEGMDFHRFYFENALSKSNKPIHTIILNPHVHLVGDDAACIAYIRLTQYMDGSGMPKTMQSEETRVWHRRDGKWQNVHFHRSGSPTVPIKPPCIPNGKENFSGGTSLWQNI
Sequence of CSNK1G3, construct: Full length (Q9Y6M4 whole entry, looked up): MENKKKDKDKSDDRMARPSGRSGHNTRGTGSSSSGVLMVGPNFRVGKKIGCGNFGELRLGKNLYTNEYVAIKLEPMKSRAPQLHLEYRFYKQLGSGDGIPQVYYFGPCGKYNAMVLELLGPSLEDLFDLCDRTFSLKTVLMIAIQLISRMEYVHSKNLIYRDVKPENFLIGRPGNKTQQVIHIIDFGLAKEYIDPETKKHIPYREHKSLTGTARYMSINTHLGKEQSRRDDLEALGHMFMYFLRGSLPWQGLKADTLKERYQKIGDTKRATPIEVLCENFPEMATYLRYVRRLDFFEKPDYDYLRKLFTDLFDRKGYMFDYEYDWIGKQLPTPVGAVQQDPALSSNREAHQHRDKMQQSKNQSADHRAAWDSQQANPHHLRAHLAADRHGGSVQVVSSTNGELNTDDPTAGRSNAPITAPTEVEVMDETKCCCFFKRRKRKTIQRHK
Sequence of PAK1, construct: aa150-end (Q13153 150-545, looked up): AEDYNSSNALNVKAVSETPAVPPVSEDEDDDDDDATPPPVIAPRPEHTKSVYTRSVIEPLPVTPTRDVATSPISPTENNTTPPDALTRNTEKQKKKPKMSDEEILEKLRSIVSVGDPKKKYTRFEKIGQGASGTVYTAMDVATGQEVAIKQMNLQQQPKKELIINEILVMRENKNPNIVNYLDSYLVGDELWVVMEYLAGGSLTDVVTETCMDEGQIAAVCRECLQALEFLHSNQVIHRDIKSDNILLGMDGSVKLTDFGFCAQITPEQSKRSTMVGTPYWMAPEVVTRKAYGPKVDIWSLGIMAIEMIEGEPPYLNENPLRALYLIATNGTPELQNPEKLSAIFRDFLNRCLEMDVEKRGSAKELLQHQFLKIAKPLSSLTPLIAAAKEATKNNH
Sequence of ACVR1B, construct: aa150-end (P36896 150-505, looked up): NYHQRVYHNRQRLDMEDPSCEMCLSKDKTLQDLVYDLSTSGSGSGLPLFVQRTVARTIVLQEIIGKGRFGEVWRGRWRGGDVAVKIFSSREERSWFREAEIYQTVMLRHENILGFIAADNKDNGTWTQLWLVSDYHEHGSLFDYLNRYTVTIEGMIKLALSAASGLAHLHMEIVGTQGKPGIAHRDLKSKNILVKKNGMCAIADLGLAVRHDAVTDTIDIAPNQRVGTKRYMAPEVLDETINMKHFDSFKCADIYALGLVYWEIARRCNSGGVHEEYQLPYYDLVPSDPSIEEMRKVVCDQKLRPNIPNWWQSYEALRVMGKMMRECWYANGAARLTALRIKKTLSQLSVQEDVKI
Sequence of TSSK1B, construct: Full length (Q9BXA7 whole entry, looked up): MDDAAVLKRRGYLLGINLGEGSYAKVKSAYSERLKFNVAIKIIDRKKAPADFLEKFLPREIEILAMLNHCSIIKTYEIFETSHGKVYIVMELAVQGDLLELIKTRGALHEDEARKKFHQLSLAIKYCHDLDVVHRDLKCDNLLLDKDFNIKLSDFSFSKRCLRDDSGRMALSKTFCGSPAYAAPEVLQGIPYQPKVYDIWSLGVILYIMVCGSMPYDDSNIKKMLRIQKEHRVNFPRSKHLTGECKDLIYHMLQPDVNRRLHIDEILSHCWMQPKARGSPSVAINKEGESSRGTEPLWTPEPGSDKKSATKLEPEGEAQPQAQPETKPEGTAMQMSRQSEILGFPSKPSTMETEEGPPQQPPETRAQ
Sequence of CIT, construct: aa1-449 (O14578 1-449, looked up): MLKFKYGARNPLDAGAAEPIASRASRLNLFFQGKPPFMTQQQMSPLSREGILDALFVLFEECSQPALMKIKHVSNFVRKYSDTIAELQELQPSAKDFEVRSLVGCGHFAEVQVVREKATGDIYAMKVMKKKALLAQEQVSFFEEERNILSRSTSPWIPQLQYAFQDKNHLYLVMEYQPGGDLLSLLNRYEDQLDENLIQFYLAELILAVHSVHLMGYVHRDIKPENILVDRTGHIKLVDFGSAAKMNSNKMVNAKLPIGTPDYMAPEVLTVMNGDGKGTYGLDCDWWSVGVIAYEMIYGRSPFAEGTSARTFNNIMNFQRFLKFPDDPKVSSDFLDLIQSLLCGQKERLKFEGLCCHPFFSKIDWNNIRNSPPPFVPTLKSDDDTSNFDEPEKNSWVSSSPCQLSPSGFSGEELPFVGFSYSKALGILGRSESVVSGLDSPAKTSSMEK
Sequence of CDKL1, construct: aa2-304 (Q00532 2-304, looked up): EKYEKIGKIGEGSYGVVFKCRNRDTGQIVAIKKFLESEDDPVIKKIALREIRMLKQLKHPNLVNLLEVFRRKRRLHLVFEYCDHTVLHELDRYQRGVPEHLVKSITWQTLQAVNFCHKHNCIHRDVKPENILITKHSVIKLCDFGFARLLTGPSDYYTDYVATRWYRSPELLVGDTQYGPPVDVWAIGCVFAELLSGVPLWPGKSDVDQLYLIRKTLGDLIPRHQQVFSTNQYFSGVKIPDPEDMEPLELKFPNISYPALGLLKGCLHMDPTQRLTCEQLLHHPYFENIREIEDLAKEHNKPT

| Substance | relative phosphorylation |
| --- | --- |
| ACVR1B, construct: aa150-end (from UniProt P36896) | 0.604 |
| TSSK1B, construct: Full length (from UniProt Q9BXA7) | 1.54 |
| CSNK1A1L, construct: Full length (from UniProt Q8N752) | 1.25 |
| CSNK1G3, construct: Full length (from UniProt Q9Y6M4) | 1.03 |

Same assay, conditions: R fixed; at +2

| Substance | relative phosphorylation |
| --- | --- |
| CIT, construct: aa1-449 (from UniProt O14578) | 0.907 |
| PAK1, construct: aa150-end (from UniProt Q13153) | 0.793 |
| CAMK2D, construct: Full length (from UniProt Q13557) | 0.716 |
| CDKL1, construct: aa2-304 (from UniProt Q00532) | 2.02 |
| ACVR1B, construct: aa150-end (from UniProt P36896) | 0.764 |
| TSSK1B, construct: Full length (from UniProt Q9BXA7) | 0.586 |
| CSNK1A1L, construct: Full length (from UniProt Q8N752) | 1.03 |
| CSNK1G3, construct: Full length (from UniProt Q9Y6M4) | 1.25 |

Same assay, conditions: R fixed; at +3

| Substance | relative phosphorylation |
| --- | --- |
| CIT, construct: aa1-449 (from UniProt O14578) | 0.763 |
| PAK1, construct: aa150-end (from UniProt Q13153) | 0.841 |
| CAMK2D, construct: Full length (from UniProt Q13557) | 0.61 |
| CDKL1, construct: aa2-304 (from UniProt Q00532) | 1.63 |
| ACVR1B, construct: aa150-end (from UniProt P36896) | 0.662 |
| TSSK1B, construct: Full length (from UniProt Q9BXA7) | 0.953 |
| CSNK1A1L, construct: Full length (from UniProt Q8N752) | 0.801 |
| CSNK1G3, construct: Full length (from UniProt Q9Y6M4) | 0.877 |

Same assay, conditions: R fixed; at +4

| Substance | relative phosphorylation |
| --- | --- |
| CIT, construct: aa1-449 (from UniProt O14578) | 0.874 |
| PAK1, construct: aa150-end (from UniProt Q13153) | 0.95 |
| CAMK2D, construct: Full length (from UniProt Q13557) | 0.549 |
| CDKL1, construct: aa2-304 (from UniProt Q00532) | 1.47 |
| ACVR1B, construct: aa150-end (from UniProt P36896) | 0.799 |
| TSSK1B, construct: Full length (from UniProt Q9BXA7) | 0.529 |
| CSNK1A1L, construct: Full length (from UniProt Q8N752) | 0.897 |
| CSNK1G3, construct: Full length (from UniProt Q9Y6M4) | 1.02 |

Same assay, conditions: R fixed; at -1

| Substance | relative phosphorylation |
| --- | --- |
| CIT, construct: aa1-449 (from UniProt O14578) | 1.85 |
| PAK1, construct: aa150-end (from UniProt Q13153) | 2.22 |
| CAMK2D, construct: Full length (from UniProt Q13557) | 0.882 |
| CDKL1, construct: aa2-304 (from UniProt Q00532) | 1.44 |
| ACVR1B, construct: aa150-end (from UniProt P36896) | 0.88 |
| TSSK1B, construct: Full length (from UniProt Q9BXA7) | 1.98 |
| CSNK1A1L, construct: Full length (from UniProt Q8N752) | 1.54 |
| CSNK1G3, construct: Full length (from UniProt Q9Y6M4) | 1.28 |

Same assay, conditions: R fixed; at -2

| Substance | relative phosphorylation |
| --- | --- |
| CIT, construct: aa1-449 (from UniProt O14578) | 4.68 |
| PAK1, construct: aa150-end (from UniProt Q13153) | 6.99 |
| CAMK2D, construct: Full length (from UniProt Q13557) | 1.02 |
| CDKL1, construct: aa2-304 (from UniProt Q00532) | 1.21 |
| ACVR1B, construct: aa150-end (from UniProt P36896) | 0.624 |
| TSSK1B, construct: Full length (from UniProt Q9BXA7) | 1.72 |
| CSNK1A1L, construct: Full length (from UniProt Q8N752) | 2.1 |
| CSNK1G3, construct: Full length (from UniProt Q9Y6M4) | 1.54 |

Same assay, conditions: R fixed; at -3

| Substance | relative phosphorylation |
| --- | --- |
| CIT, construct: aa1-449 (from UniProt O14578) | 9.39 |
| PAK1, construct: aa150-end (from UniProt Q13153) | 4.23 |
| CAMK2D, construct: Full length (from UniProt Q13557) | 3.93 |
| CDKL1, construct: aa2-304 (from UniProt Q00532) | 7.35 |
| ACVR1B, construct: aa150-end (from UniProt P36896) | 0.884 |
| TSSK1B, construct: Full length (from UniProt Q9BXA7) | 3.76 |
| CSNK1A1L, construct: Full length (from UniProt Q8N752) | 2.08 |
| CSNK1G3, construct: Full length (from UniProt Q9Y6M4) | 1.02 |

Same assay, conditions: R fixed; at -4

| Substance | relative phosphorylation |
| --- | --- |
| CIT, construct: aa1-449 (from UniProt O14578) | 3.11 |
| PAK1, construct: aa150-end (from UniProt Q13153) | 1.99 |
| CAMK2D, construct: Full length (from UniProt Q13557) | 1.09 |
| CDKL1, construct: aa2-304 (from UniProt Q00532) | 1.54 |
| ACVR1B, construct: aa150-end (from UniProt P36896) | 0.889 |
| TSSK1B, construct: Full length (from UniProt Q9BXA7) | 1.81 |
| CSNK1A1L, construct: Full length (from UniProt Q8N752) | 1.15 |
| CSNK1G3, construct: Full length (from UniProt Q9Y6M4) | 0.845 |

Same assay, conditions: R fixed; at -5

| Substance | relative phosphorylation |
| --- | --- |
| CIT, construct: aa1-449 (from UniProt O14578) | 5.94 |
| PAK1, construct: aa150-end (from UniProt Q13153) | 2.04 |
| CAMK2D, construct: Full length (from UniProt Q13557) | 1.03 |
| CDKL1, construct: aa2-304 (from UniProt Q00532) | 1.63 |
| ACVR1B, construct: aa150-end (from UniProt P36896) | 1.11 |
| TSSK1B, construct: Full length (from UniProt Q9BXA7) | 1.09 |
| CSNK1A1L, construct: Full length (from UniProt Q8N752) | 1.18 |
| CSNK1G3, construct: Full length (from UniProt Q9Y6M4) | 0.992 |

Same assay, conditions: V fixed; at +1

| Substance | relative phosphorylation |
| --- | --- |
| CIT, construct: aa1-449 (from UniProt O14578) | 0.734 |
| PAK1, construct: aa150-end (from UniProt Q13153) | 0.971 |
| CAMK2D, construct: Full length (from UniProt Q13557) | 1.65 |
| CDKL1, construct: aa2-304 (from UniProt Q00532) | 0.744 |
| ACVR1B, construct: aa150-end (from UniProt P36896) | 1.19 |
| TSSK1B, construct: Full length (from UniProt Q9BXA7) | 0.935 |
| CSNK1A1L, construct: Full length (from UniProt Q8N752) | 1.88 |
| CSNK1G3, construct: Full length (from UniProt Q9Y6M4) | 1.5 |

Same assay, conditions: V fixed; at +2

| Substance | relative phosphorylation |
| --- | --- |
| CIT, construct: aa1-449 (from UniProt O14578) | 0.86 |
| PAK1, construct: aa150-end (from UniProt Q13153) | 0.925 |
| CAMK2D, construct: Full length (from UniProt Q13557) | 0.676 |
| CDKL1, construct: aa2-304 (from UniProt Q00532) | 0.888 |
| ACVR1B, construct: aa150-end (from UniProt P36896) | 1.18 |
| TSSK1B, construct: Full length (from UniProt Q9BXA7) | 1.07 |
| CSNK1A1L, construct: Full length (from UniProt Q8N752) | 1.38 |
| CSNK1G3, construct: Full length (from UniProt Q9Y6M4) | 0.936 |

Same assay, conditions: V fixed; at +3

| Substance | relative phosphorylation |
| --- | --- |
| CIT, construct: aa1-449 (from UniProt O14578) | 0.816 |
| PAK1, construct: aa150-end (from UniProt Q13153) | 0.797 |
